Measurements: US20220119509A1 (ARGENX, published 2022)

What was measured:
[1] = molecular target: T1, mouse C2 (mouse, UniProt P21180 19-760, limits assumed); assay: not described
T1 sequence (looked up): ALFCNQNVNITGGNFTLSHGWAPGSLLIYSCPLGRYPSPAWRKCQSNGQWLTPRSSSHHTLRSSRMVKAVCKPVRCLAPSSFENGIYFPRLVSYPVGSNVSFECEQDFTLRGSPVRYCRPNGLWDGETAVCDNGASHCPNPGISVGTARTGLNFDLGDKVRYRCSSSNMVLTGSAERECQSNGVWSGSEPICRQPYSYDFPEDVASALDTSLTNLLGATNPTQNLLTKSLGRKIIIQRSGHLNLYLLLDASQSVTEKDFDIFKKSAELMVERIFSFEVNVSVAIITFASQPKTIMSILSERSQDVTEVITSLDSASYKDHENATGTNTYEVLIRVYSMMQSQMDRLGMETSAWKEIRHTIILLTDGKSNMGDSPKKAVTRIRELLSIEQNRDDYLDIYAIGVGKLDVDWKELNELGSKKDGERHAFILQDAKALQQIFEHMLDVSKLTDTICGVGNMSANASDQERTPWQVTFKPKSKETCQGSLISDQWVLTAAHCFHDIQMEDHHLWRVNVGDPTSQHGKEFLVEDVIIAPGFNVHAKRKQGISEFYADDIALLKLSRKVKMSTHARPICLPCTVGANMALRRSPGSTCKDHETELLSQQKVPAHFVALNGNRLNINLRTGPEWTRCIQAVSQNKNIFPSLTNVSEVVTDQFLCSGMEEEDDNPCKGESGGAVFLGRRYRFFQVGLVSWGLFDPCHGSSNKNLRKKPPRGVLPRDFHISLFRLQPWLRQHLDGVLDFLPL

[2] = molecular target: T2, huC2b with mouse S2 (huC2b-mS2) (mouse, UniProt P06681 21-243 (human entry)); assay: sandwich ELISA: coated anti-C2-5F2.4, HEK293 supernatant, detection with anti-FLAG
T2 chain: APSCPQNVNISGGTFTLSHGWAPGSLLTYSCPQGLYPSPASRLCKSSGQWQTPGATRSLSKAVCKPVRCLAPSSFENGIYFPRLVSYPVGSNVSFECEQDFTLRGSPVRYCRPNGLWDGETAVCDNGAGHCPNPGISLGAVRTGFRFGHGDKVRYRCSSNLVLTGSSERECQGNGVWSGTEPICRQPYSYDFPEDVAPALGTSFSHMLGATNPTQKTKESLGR

[3] = molecular target: T3, wild type C2 with C-terminal FLAG tag (human, UniProt P06681 21-752); assay: sandwich ELISA: coated anti-C2-5F2.4, HEK293 supernatant diluted 20 times, detection with anti-FLAG
T3 construct: Secreted into the supernatant of transfected HEK293T cells; not shown: C-terminal FLAG tag
T3 sequence: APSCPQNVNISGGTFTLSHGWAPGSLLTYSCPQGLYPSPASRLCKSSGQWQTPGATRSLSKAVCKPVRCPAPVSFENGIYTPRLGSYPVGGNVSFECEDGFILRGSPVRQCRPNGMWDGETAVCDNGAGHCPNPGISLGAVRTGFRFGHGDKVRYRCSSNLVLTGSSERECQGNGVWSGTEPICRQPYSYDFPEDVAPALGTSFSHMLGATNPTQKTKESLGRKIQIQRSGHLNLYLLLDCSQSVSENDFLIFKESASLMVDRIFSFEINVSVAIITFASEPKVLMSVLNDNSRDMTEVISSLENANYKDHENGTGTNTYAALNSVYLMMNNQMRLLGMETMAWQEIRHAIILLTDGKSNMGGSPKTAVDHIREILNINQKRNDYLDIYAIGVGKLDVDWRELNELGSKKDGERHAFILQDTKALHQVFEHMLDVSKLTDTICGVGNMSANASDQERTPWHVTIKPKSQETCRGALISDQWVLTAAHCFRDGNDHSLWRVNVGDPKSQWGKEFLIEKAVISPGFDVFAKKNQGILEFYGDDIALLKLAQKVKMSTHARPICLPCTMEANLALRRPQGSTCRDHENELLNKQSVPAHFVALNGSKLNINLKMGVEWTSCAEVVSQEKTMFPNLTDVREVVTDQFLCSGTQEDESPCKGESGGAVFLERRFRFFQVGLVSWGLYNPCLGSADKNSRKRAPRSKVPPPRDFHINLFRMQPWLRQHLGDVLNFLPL
Description: FIG. 12 depicts results obtained with a domain swap ELISA performed with anti-C2-5F2.4. Anti-C2-5F2.4 mAb (human IgG4 S241P VH4/VL3 LC-13/03-163A Bioceros) was used for coating, plates were incubated with 20 times diluted supernatant of HEK293 transfectants, and binding was detected by an anti-FLAG Ab. Representative results from two independent experiments with similar outcome.
Next, the recognition of the swap mutants by the anti-C2-5F2.4 antibody was investigated. To this effect, microplates (Maxisorp, NUNC, Cat #439454) were coated overnight with 2 μg/mL anti-C2-5F2.4 in 100 μL PBS. Plates were washed 4 times with PBS with 0.05% Tween-20 and blocked with 200 μL PBS with 0.1% Tween-20 with 1% bovine serum albumin (BSA) (PBST-BSA) for 1 hour at RT. After washing, 100 μL culture supernatant containing mutants were added 20× diluted in PBST-BSA and incubated for 2 hours at RT with agitation. After washing, as detection antibody 1 μg/mL biotinylated anti-FLAG (clone M2, Sigma-Aldrich) was added in PBST-BSA for 1 hour at RT. The plate was washed and 1 μg/mL streptavidin-POD conjugate (Roche, Cat #11089153001) was added and incubated in the dark for 30 minutes. […] Absorbance was measured at 450 nm on a microplate reader (BioRad, iMark Microplate reader).

[4] = molecular target: T4, human C2b fragment (huC2b) (human, UniProt P06681 21-243); assay: as above
T4 construct: Supernatant of transfected HEK293 cells; not shown: FLAG tag (the construct is detected with anti-FLAG)
T4 sequence: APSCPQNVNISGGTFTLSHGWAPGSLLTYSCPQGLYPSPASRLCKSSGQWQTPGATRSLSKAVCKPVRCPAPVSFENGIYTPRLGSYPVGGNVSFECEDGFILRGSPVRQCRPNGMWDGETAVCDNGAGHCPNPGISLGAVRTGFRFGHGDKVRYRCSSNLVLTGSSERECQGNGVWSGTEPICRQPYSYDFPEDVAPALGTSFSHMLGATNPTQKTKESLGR

[5] = molecular target: T5, human complement factor C2 (human, UniProt P06681 21-752); assay: SPR (Biacore), C2 coated on the chip, Fab in solution, 1:1 model; C2 on the chip, Fab in solution
T5 construct: also called human C2; recombinant human C2
T5 sequence: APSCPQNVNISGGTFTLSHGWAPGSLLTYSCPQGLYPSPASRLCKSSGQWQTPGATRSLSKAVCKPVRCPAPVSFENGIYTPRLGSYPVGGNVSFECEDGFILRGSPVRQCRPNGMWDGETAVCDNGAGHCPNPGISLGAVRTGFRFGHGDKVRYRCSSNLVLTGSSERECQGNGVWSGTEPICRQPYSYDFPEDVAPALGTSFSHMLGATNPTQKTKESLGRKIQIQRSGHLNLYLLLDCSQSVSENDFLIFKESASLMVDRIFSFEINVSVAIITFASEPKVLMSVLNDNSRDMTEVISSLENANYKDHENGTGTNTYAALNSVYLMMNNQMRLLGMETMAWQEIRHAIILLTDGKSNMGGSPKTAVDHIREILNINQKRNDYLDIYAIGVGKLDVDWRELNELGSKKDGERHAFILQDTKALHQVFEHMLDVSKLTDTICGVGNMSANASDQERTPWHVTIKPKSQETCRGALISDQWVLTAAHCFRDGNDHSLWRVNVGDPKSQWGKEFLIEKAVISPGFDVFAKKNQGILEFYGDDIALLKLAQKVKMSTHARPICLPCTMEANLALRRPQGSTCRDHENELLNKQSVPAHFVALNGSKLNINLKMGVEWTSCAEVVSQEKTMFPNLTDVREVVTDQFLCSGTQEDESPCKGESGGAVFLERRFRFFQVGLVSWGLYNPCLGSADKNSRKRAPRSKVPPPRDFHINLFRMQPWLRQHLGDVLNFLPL

B1: anti-C2-5F2.4 mAb (human IgG4 S241P VH4/VL3 LC-13/03-163A Bioceros) (antibody, V domains shown)
VH: EVQLVQSGAEVKKPGASVKVSCKASGYTFTDYNMDWVRQATGQGLEWIGDINPNYESTGYNQKFKGRATMTVNKSISTAYMELSSLRSEDTAVYYCAREDDHDAFAYWGQGTLVTVSS
VL: DNVLTQSPDSLAVSLGERATISCRASKSVRTSGYNYMHWYQQKPGQPPKLLIYLASNLKSGVPDRFSGSGSGTDFTLTISSLQAEDAATYYCQHSRELPYTFGQGTKLEIK
notes: Human IgG4 S241P; also called humanized 5F2.4
binding result [1]: no binding
binding result [2]: no binding
binding result [3]: binds
binding result [4]: binds

B2: Fab of ARGX-117 (Fab, V domains shown)
VH: EVQLVQSGAEVKKPGASVKVSCKASGYTFTDYNMDWVRQATGQGLEWIGDINPNYESTGYNQKFKGRATMTVDKSISTAYMELSSLRSEDTAVYYCAREDDHDAFAYWGQGTLVTVSS
VL: DNVLTQSPDSLAVSLGERATISCRASKSVRTSGYNYMHWYQQKPGQPPKLLIYLASNLKSGVPDRFSGSGSGTDFTLTISSLQAEDAATYYCQHSRELPYTFGQGTKLEIK
Kd [5]: ~0.3 nM
